System: Bacillus subtilis
Experiment: cleaved RNA product abundance (RNA/gDNA barcode ratio) relative to median wild-type variant (ratio to wild type); higher = more accumulation of the downstream cleavage product
Outline: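 Reporter mRNAs based on truncated aprE or tetM carried barcoded, mutagenized RNase Y cleavage-site windows built from oligos with a 9% error rate and were integrated into the B. subtilis chromosome. Cultures grew in LB at 37°C from OD600 0.0003 to 0.3. Cleaved RNA was gel-selected, reverse transcribed and barcode-sequenced together with genomic DNA barcodes, and UMIs were collapsed. Cleaved product abundance is the per-construct ratio of RNA to gDNA barcodes, scaled to the median of constructs carrying the unmutated site.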

[1] = experiment (reporter, strain, medium): exp 4a: truncated aprE reporter, strain BJT201 with 2% xylose (RNase J1 expressed), cleavage site: cggR-gapA (positions -7 to +36 mutated)
[2] = experiment (reporter, strain, medium): exp 8a: truncated aprE reporter, strain BJT201 with 2% xylose (RNase J1 expressed), cleavage site: glnRA (positions -5 to +31 mutated)
[3] = experiment (reporter, strain, medium): exp 2b: truncated aprE reporter, strain BJT200, cleavage site: cggR-gapA (positions -7 to +36 mutated)

Sequence	cleaved RNA product abundance [1]	cleaved RNA product abundance [2]	cleaved RNA product abundance [3]
ACAGACGAAGGAGCCGCAAAGAAGTTATCAAGGGATGAATTATCCCTCAATATAAATATCTCTCACTTATTTAAA	0.25	–	–
ACAGACGAAGGAGCCGCAAAGTAGTTATTAAGGGATCAATAATCCCTCAATATAAATATCTCTCACTTATTTAAA	1.25	–	–
CGACATGTCCCGCTTCTTTCATTAATCCGTTAGTAACTGTTTAGCTATATACATTTACCTTTTAAGAGGAGGAAT	–	0.463	–
ACAGACGAAGGAGCCGCAAAGAAGTTATTAAGGGAAGAATAATCCCACAATATAAAAATCTCTCACTTATTTAAA	0.118	–	–
ACAGACGAAGGAGCCGCAAAGAAGTTATTAAGGGATAAATAATCCCACAATATAAATATCTCTCACTTATTTAAA	0.356	–	0.253
CGACATGTCCCGCTTCTTTCATTAATCCGTTAGCAACTGTTTTGCTATATACATTTACCATTTAAGAGGAGGAAT	–	1.03	–
CGACATGTCCCGCTTCTTTCATTATTTCGTTAGCAACTGTTTTGCTATATACATTTACCTTTTAAGAGGAGGAAT	–	1.59	–
ACAGACGAAGGAGCCGCAAAGAAGTTATTAAAGGATGATTAATCCCTCAATATAAATATCTCTCACTTATTTAAA	0.184	–	0.122
CGACATGTCCCGCTTCTTTCATTAATCCGTGAGCAACTGTTTTGCTATATTCATTTACCTTTTAAGAGGAGGAAT	–	0.177	–
ACAGACGAAGGAGCCGCAAAGAAGTTATAAAGGGATCAATAATCCCTCAATATAAATATCTCTCACTTATTTAAA	0.434	–	0.26
ACAGACGAAGGAGCCGCAAAGAAGTTATTAAGGGATGAAATATCCCTCAATATAAATATCTCTCACTTATTTAAA	0.586	–	–
CGACATGTCCCGCTTCTTTCATTAATCCGTTAGCAACTGTTTTGCTATATATAATTACCTTTTAAGAGGAGGAAT	–	0.919	–
ACAGACGAAGGAGCCGCAAAGAAGTTATTAAGGAATGAATAATCCCTAAATATAAATATCTCTCACTTATTTAAA	0.147	–	0.152
ACAGACGAAGGAGCCGCAAAGAAGTTATTAAGGGATGTATAATACCTCAATATAAATATCTCTCACTTATTTAAA	0.103	–	0.139
CGACATGTCCCGCTTCTTTCATTAATCCGTTAGCAACTGTTTTGCAATATACATTTATCTTTTAAGAGGAGGAAT	–	0.505	–
ACAGACGAAGGAGCCGCAAAAAAGTTATTAAGGGATGAATAATCCCTCAATATAAATGTCTCTCACTTATTTAAA	0.309	–	0.243
ACAGACGAAGGAGCCGCAACGAAGTTATTAAGGGATGAATAATCTCTCAATATAAATATCTCTCACTTATTTAAA	0.684	–	–
ACAGACGAAGGAGCCGCAAAGAATTTATTAAGGGACGAATAATCCCTCAATATAAATATCTCTCACTTATTTAAA	0.605	–	0.463
ACAGACGAAGGAGCCGCAAAGAAGTTATTAAGTGATTAATAATCCCTCAATATAAATATCTCTCACTTATTTAAA	0.0979	–	0.112
CGACATGTCCCGCTTCTTTCATTAATCTGTTAGCAACTGTTCTGCTATATACATTTACCTTTTAAGAGGAGGAAT	–	0.368	–
ACAGACGAAGGAGCCGCAAAGAAGGTATTAAGGCATGAATAATCCCTCAATATAAATATCTCTCACTTATTTAAA	0.101	–	–

Sequence	cleaved RNA product abundance [1]	cleaved RNA product abundance [2]	cleaved RNA product abundance [3]
CGACATGTCCCGCTTCTTTCATTAATCCGTTAGCAACTGTTTTGCTACATACACTTACCTTTTAAGAGGAGGAAT	–	0.213	–
ACAGACGAAGGAGCCGCAAAAAAGTTATTAAGGGATGAAGAATCCCTCAATATAAATATCTCTCACTTATTTAAA	0.918	–	–
CGACATGTCCCGCTTCTTTCATTAATCCGGTAGCAACTGTTTTGCTATATACATTTACCTTTTAAGAGGAGGAAT	–	0.945	–
CGACATGTCCCGCTTCTTTCATTAATCCGTTATCAACTGTTTTGCTAAATACATTTACCTTTTAAGAGGAGGAAT	–	0.237	–
ACAGACGAAGGAGCCGCAAAGAAGTTATTAAGGGATAAATAATCGCTCAATATAAATATCTCTCACTTATTTAAA	0.0974	–	–
ACAGACGAAGGAGCCGCAAAGAAGTAATTAAGGGATGAATAAACCCTCAATATAAATATCTCTCACTTATTTAAA	0.198	–	0.166
CGACATGTCCCGCTTCTTTCATTAATCCGTTAGCAAATATTTTGCTATATACATTTACCTTTTAAGAGGAGGAAT	–	0.843	–
CGACATGTCCCGCTTCTTTCATTAATCCGTTATCAACTGTTTTGCTATATACATTAACCTTTTAAGAGGAGGAAT	–	0.283	–
ACAGACGAAGGAGCCGCAAAGAAGTTATCAAGGGATCAATAATCCCTCAATATAAATATCTCTCACTTATTTAAA	–	–	0.24
CGACATGTCCCGCTTCTTTCATTAATCCGTTAGCAACTGTTTTCCTATAGACATTTACCTTTTAAGAGGAGGAAT	–	0.36	–
ACAGACGAAGGAGCCGCAAAGAAGTTATTAAGGGATGAATAATCCCTCAATATAAAATATCTCTCACTTATTTAA	–	–	0.806
ACAGACGAAGGAGCCGCAAAGAAGTTATTAAGGGATGAATAATCCCTCAATATAAATATGTCTCACTTATTTAAA	0.713	–	–
CGACATGTCCCGCTTCTTTCATTAATCCGTTACCAACTGTTTTGCTATATACATTTACATTTTAAGAGGAGGAAT	–	0.209	–
ACAGACGAAGGAGCCGCAAAGAAGTTATTAAGGGATGAATAATTCCACAATATAAATATCTCTCACTTATTTAAA	0.148	–	–
ACAGACGAAGGAGCCGCAAAGAATCTATTAAGGGATGAATAATCCCTCAATATAAATATCTCTCACTTATTTAAA	0.689	–	–
CGACATGTCCCGCTTCTTTCATTATTCCGTTAGCAACTCTTTTGCTATATACATTTACCTTTTAAGAGGAGGAAT	–	2.3	–
ACAGACGAAGGAGCCGCAAAGAAGTTATTAAGTGATGAATCATCCCTCAATATAAATATCTCTCACTTATTTAAA	0.147	–	0.125
CGACATGTCCCGCTTCTTTCATTAATCCGTTACCAACTGTTTTGCTATATACTTTTACCTTTTAAGAGGAGGAAT	–	0.145	–
CGACATGTCCCGCTTCTTTCATTAATTCGTTAGCAACTGTTTTACTATATACATTTACCTTTTAAGAGGAGGAAT	–	0.749	–
ACAGACGAAGGAGCCGCAAAGAAGTTAATAAGGGATGAATAATCTCTCAATATAAATATCTCTCACTTATTTAAA	0.292	–	0.195
ACAGACGAAGGAGCCGCAAAAAAGTTATTAAGGGATGAATTATCCCTCAATATAAATATCTCTCACTTATTTAAA	0.808	–	–

Sequence	cleaved RNA product abundance [1]	cleaved RNA product abundance [2]	cleaved RNA product abundance [3]
ACAGACGAAGGAGCCGCAAAGAAGTTAGTAAGGGATGAATAATACCTCAATATAAATATCTCTCACTTATTTAAA	0.151	–	–
ACAGACGAAGGAGCCGCAAAGAAGTTATTAATGGATGCATAATCCCTCAATATAAATATCTCTCACTTATTTAAA	0.169	–	0.133
ACAGACGAAGGAGCCGCAAATAAGTTATTAGGGGATGAATAATCCCTCAATATAAATATCTCTCACTTATTTAAA	–	–	0.603
ACAGACGAAGGAGCCGCAAACAAGTTATTAAGGGATGAATAATCCCTCAATAAAAATATCTCTCACTTATTTAAA	0.1	–	–
ACAGACGAAGGAGCCGCATAGAAGTTATTAATGGATGAATAATCCCTCAATATAAATATCTCTCACTTATTTAAA	0.214	–	0.142
CGACATGTCCCGCTTCTTTCATTACTCCGTTAGCAACTGTTTTGCGATATACATTTACCTTTTAAGAGGAGGAAT	–	0.388	–
CGACATGTCCCGCTTCTTTCATTAATCTGTTAGCAACTGTTTTGCTATATACTTTTACCTTTTAAGAGGAGGAAT	–	0.728	–
ACAGACGAAGGAGCCGCAAAGAAGTTATTCAGGGAAGAATAATCCCTCAATATAAATATCTCTCACTTATTTAAA	0.697	–	–
CGACATGTCCCGCTTCTTTCATTATTCCGTTAGCAACTGTTTTCCTATATACATTTACCTTTTAAGAGGAGGAAT	–	0.524	–
ACAGACGAAGGAGCCGCAAAGAAGTTAATAAGGGATGAACAATCCCTCAATATAAATATCTCTCACTTATTTAAA	–	–	0.251
ACAGACGAAGGAGCCGCTAAGAAGTTATTAAGGGATGAATATTCCCTCAATATAAATATCTCTCACTTATTTAAA	0.667	–	–
ACAGACGAAGGAGCCGCAAAGAAGTTACTAAGGGACGAATAATCCCTCAATATAAATATCTCTCACTTATTTAAA	–	–	0.131
ACAGACGAAGGAGCCGCAAAGAAGATATTAAGGGATGAATAAACCCTCAATATAAATATCTCTCACTTATTTAAA	0.574	–	–
ACAGACGAAGGAGCCGCAAAGAAGTTATTAAGGGATGAATAATCCTCCAATATAAATATCTCTCACTTATTTAAA	–	–	0.127
CGACATGTCCCGCTTCTTTCATTAATCCGTTAGCAAATGTTTTCCTATATACACTTACCTTTTAAGAGGAGGAAT	–	0.377	–
ACAGACGAAGGAGCCGCAAAGAAGTTATTAAGGCATGAATAATCCCTCTATATAAATATCTCTCACTTATTTAAA	0.0965	–	0.0791
ACAGACGAAGGAGCCGCAAAGAAGTTATTAAGGGATTAATAATCCCTCAATATAAAGATCTCTCACTTATTTAAA	0.818	–	0.486
CGACATGTCCCGCTTCTTTCATTAATCCGTTAGCAATTGTTTTGCTATATACATTTGCCTTTTAAGAGGAGGAAT	–	0.188	–
CGACATGTCCCGCTTCTTTCATTAATCCGTTAACAACTGTTTTGGTATATACATATAGCTTTTAAGAGGAGGAAT	–	0.275	–

— the supplement of paper PMC11780869
